From publication PMC6419104, “Structural basis of guanine nucleotide exchange for Rab11 by SH3BP5” (Life Science Alliance, 2019) come the findings set out here.

Test [1] has as its target Rab11a (1–211) S40A (human) (UniProt P62491).
Test [2] concerns the target Rab11a (1–211) E39A (human) (UniProt P62491).
Test [3] concerns the target Rab11a (1–211) K41A (human) (UniProt P62491).
The target of test [4] is Rab11a (1–211) L38A (human) (UniProt P62491).
The target of test [5] is Rab11a (1–211) S42A (human) (UniProt P62491).
The next test addresses Rab11a (1–173) (human) (UniProt P62491).
In a further test the target is T1, SH3BP5 (10–276) (human, UniProt O60239 10-276).
T1 construct: Residues 10–41 and 268–276 were invisible in the electron density; The purification of this construct and of the complex is not described; also called wild-type SH3BP5 (10–276); source: E. coli Rosetta (DE3)
T1 sequence (looked up): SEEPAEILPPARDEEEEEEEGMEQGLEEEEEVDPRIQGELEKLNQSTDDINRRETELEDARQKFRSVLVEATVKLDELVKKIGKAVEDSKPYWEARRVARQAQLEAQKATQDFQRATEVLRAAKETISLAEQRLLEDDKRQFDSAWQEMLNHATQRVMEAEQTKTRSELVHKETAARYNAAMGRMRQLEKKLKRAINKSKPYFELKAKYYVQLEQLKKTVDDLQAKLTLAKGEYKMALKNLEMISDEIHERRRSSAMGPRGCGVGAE
Put plainly: crystal structure; SH3BP5 (10–276)–Rab11a (1–173) complex at 6.2 g/l, sitting drop vapor diffusion at 20°C; reservoir 0.4–0.75 M NaCl, 0.1 M NaH2PO4 (pH 6.8), 15–17% PEG2000; 3.8 Å; four complexes in the asymmetric unit. The following applies: both partners purified.

B1: SH3BP5 (41–266; R260A/R261A/R262A) (domain or fragment)
chain: VDPRIQGELEKLNQSTDDINRRETELEDARQKFRSVLVEATVKLDELVKKIGKAVEDSKPYWEARRVARQAQLEAQKATQDFQRATEVLRAAKETISLAEQRLLEDDKRQFDSAWQEMLNHATQRVMEAEQTKTRSELVHKETAARYNAAMGRMRQLEKKLKRAINKSKPYFELKAKYYVQLEQLKKTVDDLQAKLTLAKGEYKMALKNLEMISDEIHEAAASSAM
As for B1, the GEF activity: Mant-GDP release from Rab11a by fluorescence, with GppNHp (% of the wild-type activity) in test [1] came out at 25; in test [2], 50; in test [3], 25; in test [4], 50; in test [5] it was 25.

B2: SH3BP5-RA E251A (domain or fragment)
chain: VDPRIQGELEKLNQSTDDINRRETELEDARQKFRSVLVEATVKLDELVKKIGKAVEDSKPYWEARRVARQAQLEAQKATQDFQRATEVLRAAKETISLAEQRLLEDDKRQFDSAWQEMLNHATQRVMEAEQTKTRSELVHKETAARYNAAMGRMRQLEKKLKRAINKSKPYFELKAKYYVQLEQLKKTVDDLQAKLTLAKGEYKMALKNLAMISDEIHEAAASSAM
In the test with Rab11a (1–173) (human), B2 registered a GEF activity: Mant-GDP release from Rab11a by fluorescence, with GppNHp (%, relative to wild type) of 50.

B3: Rab11a (1–173) (domain or fragment, human, UniProt P62491 1-173, looked up)
chain: MGTRDDEYDYLFKVVLIGDSGVGKSNLLSRFTRNEFNLESKSTIGVEFATRSIQVDGKTIKAQIWDTAGQERYRAITSAYYRGAVGALLVYDIAKHLTYENVERWLKELRDHADSNIVIMLVGNKSDLRHLRAVPTDEARAFAEKNGLSFIETSALDSTNVEAAFQTILTEIY
notes: human Rab11a, residues 1–173; Nucleotide-free in the complex structure (a phosphate ion on the P loop); loaded with Mant-GDP in the GEF assay; source: E. coli Rosetta (DE3), purified (Ni-NTA, Ulp1 cleavage, Superdex200, second Ni-NTA); not shown: His6-SUMO, N-terminal, cleaved
With B3, in the test with SH3BP5 (10–276), the binding result is reported as “binds”.
